Laboratory results: patent publication US20200181597A1, “Composition and Application of Arginine-depleting Agents for Cancer, Obesity, Metabolic Disorders, and Related Complications and Comorbidities” (THE HONG KONG POLYTECHNIC UNIVERSITY, priority 2018, published 2020)

Assays:
[1] = test system: MCF-7 cancer cells; assay: cells; assay type: cell-based, human; settings: MCF-7, single agent
Experimental: (§1) Breast cancer cell lines (e.g. human MCF-7 and MDA-MB-231 cells) were used in these studies. Cancer cells (5×10^3 cells) were seeded in 96-well plates (TPP) with […] complete medium. The plates were incubated in incubator overnight and the cells were allowed to adhere to the plates. […] Each dosage was triplicated in 3 wells to obtain the average change of cell viability. […] The plates were put back into the incubator and further incubated for 4 h. To dissolve the insoluble compound, formazan, formed by MTT, 100 μl of 10% SDS in 0.01 M HCl was added. The plates were incubated at 37° C. overnight. The color change was measured by spectrophotometer at 570 nm. Control set up (without any drug) was used as base to calculate percentage of cell viability which was used to plot the dose response curve by the software Prism 6.0 (GraphPad) to find the IC50 values. […] CalcuSyn software (Biosoft) was used for calculating the CI values.

[2] = test system: MDA-MB-231 breast cancer cells; assay: cells; assay type: cell-based, human; settings: MDA-MB-231, single agent
Experimental: as §1

[3] = test system: 4T1 cells; assay: Trans-well migration and invasion assay; assay type: cell-based, mouse; settings: 1 U/mL, 20 h
Experimental: (§2) Breast cancer cell lines (human MDA-MB-231 cells and mouse 4T1 cells) were used in these studies. Both migration assay and invasion assay were performed in 24 wells Costar (Corning) Trans-well system (polycarbonate membrane inserts, pore size 8.0 μm). Before the assay, the cells were cultivated in appropriate serum free medium for at least 24 h. One day before seeding cells to the upper chambers, 100 μL diluted matrigel was added to the upper chambers of the inserts for invasion assay. Serum free medium (100 μL) was added to the upper chamber used for migration assay. The 24 well plates were incubated in the incubator for overnight. The next day, cells were trypsinized and counted. In the studies, 3×10^4 cells of 4T1 or 5×10^4 cells of MDA-MB-231, with 200 μL appropriate serum free medium, were seeded into the upper chambers. Appropriate complete medium (750 μL) was added to the lower chambers. For the drug treatment group, 1 U/mL His-rhArg (SEQ ID NO: 101) was added to both chambers. The 24 well plates were incubated at 37° C. humidified atmosphere with 5% CO2 for 20 h (4T1 cells) or 24 h (MDA-MB-231 cells).
(§3) After incubation, the medium in the upper chambers was removed. The trans-well inserts were washed with 1×PBS twice. Cold 100% methanol was added to both upper chambers and lower chambers for 10 min to fix the cells. The inserts were washed with 1×PBS for two times. […]

[4] = test system: MDA-MB-231 cells; assay: Trans-well migration and invasion assay; assay type: cell-based, human; settings: 1 U/mL, 24 h
Experimental: as §2, §3

B1: His-rhArg: recombinant human arginase with His tag, SEQ ID NO: 101 (protein)
chain: MHHHHHHMSAKSRTIGIIGAPFSKGQPRGGVEEGPTVLRKAGLLEKLKEQECDVKDYGDLPFADIPNDSPFQIVKNPRSVGKASEQLAGKVAEVKKNGRISLVLGGDHSLAIGSISGHARVHPDLGVIWVDAHTDINTPLTTTSGNLHGQPVSFLLKELKGKIPDVPGFSWVTPCISAKDIVYIGLRDVDPGEHYILKTLGIKYFSMTEVDRLGIGKVMEETLSYLLGRKKRPIHLSFDVDGLDPSFTPATGTPVVGGLTYREGLYITEEIYKTGLLSGLDIMEVNPSLGKTPEEVTRTVNTAVAITLACFGLAREGNHKPIDYLNPPK
modifications: His tag; His-rhArg, Synthesized in Lab
IC50 [1]: 0.7869 U/mL | IC50 [2]: 0.9522 U/mL | number of cancer cells that can migrate and invade via the transwell inserts [3]: decreased | number of cancer cells that can migrate and invade via the transwell inserts [4]: decreased
